Values of other authors, collected in paper PMC4884208.

Columns and labels:
Assay in all cases: UV-vis
Tyr36 = Tyr36 (UniProt position 55, FHTSGYDTQAI); conditions: 25.0 C, 0.5 M Gdn-HCl
Tyr18 = Tyr18 (UniProt position 37, KDLKGYGGVSL); conditions: 25.0 C, 0.5 M Gdn-HCl
Tyr50 = Tyr50 (UniProt position 69, NDSTEYGLFQI); conditions: 25.0 C, 0.5 M Gdn-HCl
Tyr103 = Tyr103 (UniProt position 122, KVGINYWLAHK); conditions: 25.0 C, 0.5 M Gdn-HCl
Tyr73 = tested on: Tyr73
Tyr113 = tested on: Tyr113
Tyr22 = tested on: Tyr22
Tyr75 = tested on: Tyr75
Tyr25 = tested on: Tyr25
Tyr28 = tested on: Tyr28
Tyr52 = tested on: Tyr52
Tyr117 = tested on: Tyr117

| Substance | pKa (Tyr36; alkaline-denatured (D) state) | pKa (Tyr36; native (N) state) | pKa (Tyr18; alkaline-denatured (D) state) | pKa (Tyr18; native (N) state) | pKa (Tyr50; alkaline-denatured (D) state) | pKa (Tyr50; native (N) state) | pKa (Tyr103; alkaline-denatured (D) state) | pKa (Tyr103; native (N) state) | pKa (Tyr73) | pKa (Tyr113) | pKa (Tyr22) | pKa (Tyr75) | pKa (Tyr25) | pKa (Tyr28) | pKa (Tyr52) | pKa (Tyr117) |
| --- | --- | --- | --- | --- | --- | --- | --- | --- | --- | --- | --- | --- | --- | --- | --- | --- |
| alpha-lactalbumin (Bos taurus) | 10.3 | 11.8 | 10.3 | 11.8 | 10.3 | 12.7 | 10.3 | 10.5 |  |  |  |  |  |  |  |  |
| Vipoxin neurotoxic phospholipase A2 (basic PLA2 subunit of vipoxin) (Vipera ammodytes meridionalis (inferred; organism not stated in the article)) |  |  |  |  |  |  |  |  | 13.23 | 12.17 | 10.45 | 10.45 | 13.23 | 12.17 | 12.17 | 10.45 |
